What was measured:
purified protein [1] = substrate: O=CCc1ccccc1; experiment: purified protein; type: biochemical, Sphingopyxis fribergensis; settings: NAD+ 2.5 mmol L^-1, pH 7.7, aldehyde made from styrene oxide by SOI-1CP
purified protein [2] = substrate: NC(=O)c1ccc[n+]([C@@H]2O[C@H](COP(=O)(O)OP(=O)(O)OC[C@H]3O[C@@H](n4cnc5c(N)ncnc54)[C@H](O)[C@@H]3O)[C@@H](O)[C@H]2O)c1; experiment: purified protein; type: biochemical, Sphingopyxis fribergensis; settings: phenylacetaldehyde 0.5 mmol L^-1, pH 7.7, aldehyde made from styrene oxide by SOI-1CP, varied: cofactor

B1: FeaB-Kp5.2 (Sphingopyxis fribergensis) (protein)
chain: MATAQSYVTPLSAVSTFIGHDHGLFIDGDWRAAKGTERLDVFDPSTGEPIASVANASPDDVDHAVRAAHKAFESGVWSGIAPAERERLLLKFADLVEANAEELAQIETLNQGKSINISRFVDVGGAPAYMRYVAGLTTKITGETFDVSIGAIPGARFTASTRREPIGVVGAIAPWNFPMMIGLWKIMPALAAGCTVVLKPSEVTPLTSLRLASLAKEAGLPAGVLNVITGDGKAGKALVDHPLVAKITFTGSTATGKAIARSASDRLLRTSLELGGKNPAIFLADAPIEQAVQGAILGGFFNNGQVCAASSRLYIARAIYDPFIKALAHAVDGMTMGPGLDTAAQINPVVSLQHRAKILDHIARARQDGAQIVAGGESPDRAGYYVRPTVVVGAGAQLAISRQEVFGPLVTVTPFDDEDEAINLANDTEMGLTASLWTNDLKKTMDLVPRIKAGTVWVNCHNLIDPNMPFGGYKESGIGRDFGIHSLDGYSEVKSVCIAH
- Km (purified protein [1]): 22 ± 5 µM
- Vmax (purified protein [1]): 14.8 µmol/min/mg
- kcat (purified protein [1]): 52 s⁻¹
- Km (purified protein [2]): 500 ± 300 µM
- Vmax (purified protein [2]): 17.8 µmol/min/mg
- kcat (purified protein [2]): 62.5 s⁻¹

— PMC7910268
